The values that follow come from patent US6927039B2, “Enzymatic process” (Nanobiodesign Limited, priority 2000, dated 2005).

Test in all cases: Substrate-dependent NADPH consumption assay at 340 nm, purified enzyme (in vitro)
Holding throughout (format): biochemical, Bacillus megaterium
Holding throughout (conditions): other: purified enzyme, NADPH 130-150 μM, 20° C., pH 8.0

Substrate in data set [1]: CCCCCCCCCCCCOS(=O)(=O)[O-].[Na+]
The method, then:
(§1) NADPH consumption was followed at 340 nm using a Δε340=6.22 mM^−1·cm^−1. Both assays were performed at 20° C. using P450 BM3 in 100 mM potassium phosphate buffer, pH 8.0. Reaction was initiated by addition to the substrate bound enzyme of NADPH to a final concentration of 130-150 μM. In the kinetics assay the rate constant kcat was calculated from the linear part of the decrease in A340 with time, which lasted at least for the first 4 sec. The enzyme concentration typically varied between 0.4 and 0.8 μM in the binding assay and between 8 and 25 nM in the catalytic assay. Substrate stock solutions were freshly prepared the day of the assay. Fatty acid stock solutions were in 50 mM potassium carbonate, SDS was easily dissolved in water, while TCE stock solutions were prepared in ethanol. If appropriate, stocks of candidate agents may be prepared in, for example, N,N-dimethylformamide just before the assay. […] The confidence interval for Kd given in the results section is the mean±the standard deviation of at least four measurements, as calculated using the software Kaleidagraph. Similarly kcat was calculated by fitting data points to the Michaelis-Menten equation. Each data point is the mean of at least four measurements.

Substrate in data set [2]: CCCCC/C=C\C/C=C\C/C=C\C/C=C\CCCC(=O)O
The method, then:
as §1

Substrate in data set [3]: ClC(Cl)C(Cl)Cl
The method, then: as §1

Substrate in data set [4]: CCCCCCCCCCCC(=O)O
The method, then:
as §1

The term Km denotes the substrate concentration at which the rate is half of its maximum.

B1: cytochrome P450 BM3 (Priestia megaterium NBRC 15308 = ATCC 14581) (protein)
chain: MTIKEMPQPKTFGELKNLPLLNTDKPVQALMKIADELGEIFKFEAPGRVTRYLSSQRLIKEACDESRFDKNLSQALKFVRDFAGDGLFTSWTHEKNWKKAHNILLPSFSQQAMKGYHAMMVDIAVQLVQKWERLNADEHIEVPEDMTRLTLDTIGLCGFNYRFNSFYRDQPHPFITSMVRALDEAMNKLQRANPDDPAYDENKRQFQEDIKVMNDLVDKIIADRKASGEQSDDLLTHMLNGKDPETGEPLDDENIRYQIITFLIAGHETTSGLLSFALYFLVKNPHVLQKAAEEAARVLVDPVPSYKQVKQLKYVGMVLNEALRLWPTAPAFSLYAKEDTVLGGEYPLEKGDELMVLIPQLHRDKTIWGDDVEEFRPERFENPSAIPQHAFKPFGNGQRACIGQQFALHEATLVLGMMLKHFDFEDHTNYELDIKETLTLKPEGFVVKAKSKKIPLGGIPSPSTEQSAKKVRKKAENAHNTPLLVLYGSNMGTAEGTARDLADIAMSKGFAPQVATLDSHAGNLPREGAVLIVTASYNGHPPDNAKQFVDWLDQASADEVKGVRYSVFGCGDKNWATTYQKVPAFIDETLAAKGAENIADRGEADASDDFEGTYEEWREHMWSDVAAYFNLDIENSEDNKSTLSLQFVDSAADMPLAKMHGAFSTNVVASKELQQPGSARSTRHLEIELPKEASYQEGDHLGVIPRNYEGIVNRVTARFGLDASQQIRLEAEEEKLAHLPLAKTVSVEELLQYVELQDPVTRTQLRAMAAKTVCPPHKVELEALLEKQAYKEQVLAKRLTMLELLEKYPACEMKFSEFIALLPSIRPRYYSISSSPRVDEKQASITVSVVSGEAWSGYGEYKGIASNYLAELQEGDTITCFISTPQSEFTLPKDPETPLIMVGPGTGVAPFRGFVQARKQLKEQGQSLGEAHLYFGCRSPHEDYLYQEELENAQSEGIITLHTAFSRMPNQPKTYVQHVMEQDGKKLIELLDQGAHFYICGDGSQMAPAVEATLMKSYADVHQVSEADARLWLQQLEEKGRYAKDVWAG
notes: expressed in transfected cells; host or cells: E. coli BL21(DE3) transformed with pT7Bm3Z
With B1, the Km in data set [1] amounted to 0.51 ± 0.12 µM; in data set [2], 0.37 ± 0.07 µM; in data set [3], 7960 ± 2041 µM; in data set [4], 67.8 ± 14.5 µM. Further, the kcat was determined as 2605 ± 61 mole NADPH/min/mole P450 in data set [1], 3570 ± 88 mole NADPH/min/mole P450 in data set [2], 5133.5 ± 641.3 mole NADPH/min/mole P450 in data set [3] and 1928 ± 114 mole NADPH/min/mole P450 in data set [4].
